Source: paper PMC7040854

Key:
[1] = biological target: FGFR2K^R678E (human); assay: NMR CPMG relaxation dispersion
[2] = biological target: FGFR2K^R678G (human); assay: NMR CPMG relaxation dispersion

Row | Substance | Kd [1] | Kd [2]
1 | FGFR2K^R678E (domain or fragment) | 8 mM | –
2 | FGFR2K^R678G (domain or fragment) | – | 55 mM
